T1: EsCas13d, nuclease-dead (Eubacterium siraeum, UniProt B0MS50, R295A;H300A;R849A;H854A)
T1 sequence: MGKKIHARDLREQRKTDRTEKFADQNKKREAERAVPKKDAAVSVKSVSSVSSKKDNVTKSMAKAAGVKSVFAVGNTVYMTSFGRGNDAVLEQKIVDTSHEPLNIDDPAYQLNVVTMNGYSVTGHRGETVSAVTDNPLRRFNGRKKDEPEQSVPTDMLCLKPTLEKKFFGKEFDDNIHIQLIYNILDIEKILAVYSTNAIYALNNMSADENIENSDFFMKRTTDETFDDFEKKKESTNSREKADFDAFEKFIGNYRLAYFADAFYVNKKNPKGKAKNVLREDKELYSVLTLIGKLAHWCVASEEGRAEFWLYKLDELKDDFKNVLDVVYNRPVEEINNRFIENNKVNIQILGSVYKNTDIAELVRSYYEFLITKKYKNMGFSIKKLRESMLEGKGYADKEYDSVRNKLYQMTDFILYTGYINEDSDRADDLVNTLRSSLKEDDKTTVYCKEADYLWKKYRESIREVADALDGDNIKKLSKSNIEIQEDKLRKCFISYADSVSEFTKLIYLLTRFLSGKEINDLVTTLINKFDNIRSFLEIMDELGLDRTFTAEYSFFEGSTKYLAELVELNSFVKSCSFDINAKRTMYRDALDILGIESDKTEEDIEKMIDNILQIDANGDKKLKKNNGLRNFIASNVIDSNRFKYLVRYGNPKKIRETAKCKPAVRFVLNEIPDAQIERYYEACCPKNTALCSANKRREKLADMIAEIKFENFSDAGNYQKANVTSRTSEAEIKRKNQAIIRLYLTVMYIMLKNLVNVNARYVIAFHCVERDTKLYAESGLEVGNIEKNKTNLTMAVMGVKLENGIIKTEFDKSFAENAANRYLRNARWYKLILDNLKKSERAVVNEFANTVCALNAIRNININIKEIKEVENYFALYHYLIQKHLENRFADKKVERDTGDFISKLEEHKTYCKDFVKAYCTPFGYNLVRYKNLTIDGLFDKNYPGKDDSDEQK

B1: target 1 MT 5'PFS UUA 3'PFS UUA (mixed)
RNA 1: CACCCGUGCAAAAAUGCAGGGGUCUAAAACUGAGCGGAUAACCUCUCUAUGG
RNA 2: GGGAAUGGAUCCACAUCUACGAAUUCUUACCAUAGAGAGGUUAUCCGCUCAUUAAGAUCGGAAGAGCACACGU
B2: target 1 MT 5'PFS GUG 3'PFS CUG (mixed)
RNA 1: B1 RNA 1
RNA 2: B1 RNA 2 with U27G, A29G, U52C, A54G
B3: target 1 MT 5'PFS UUA 3'PFS UUG (mixed)
RNA 1: B1 RNA 1
RNA 2: B1 RNA 2 with A54G
B4: target 1 MT 5'PFS GCG 3'PFS ACC (mixed)
RNA 1: B1 RNA 1
RNA 2: B1 RNA 2 with U27G, U28C, A29G, U52A, U53C, A54C
B5: target 1 MT 5'PFS UUA 3'PFS UUC (mixed)
RNA 1: B1 RNA 1
RNA 2: B1 RNA 2 with A54C
B6: target 1 MT 5'PFS AAU 3'PFS UGA (mixed)
RNA 1: B1 RNA 1
RNA 2: B1 RNA 2 with U27A, U28A, A29U, U53G
B7: target 1 MT 5'PFS UCC 3'PFS UAG (mixed)
RNA 1: B1 RNA 1
RNA 2: B1 RNA 2 with U28C, A29C, U53A, A54G
B8: target 1 insU 3' of 2,insC 3' of 1 (mixed)
RNA 1: B1 RNA 1
RNA 2: GGGAAUGGAUCCACAUCUACGAAUUCGUACCAUAGAGAGGUUAUCCGCUCUACCCGAGAUCGGAAGAGCACACGU
B9: target 1 MT 5'PFS GAG 3'PFS ACG (mixed)
RNA 1: B1 RNA 1
RNA 2: B1 RNA 2 with U27G, U28A, A29G, U52A, U53C, A54G
B10: target 1 MT 5'PFS GAG 3'PFS ACU (mixed)
RNA 1: B1 RNA 1
RNA 2: B1 RNA 2 with U27G, U28A, A29G, U52A, U53C, A54U
B11: target 1 MT 5'PFS GGA 3'PFS UGC (mixed)
RNA 1: B1 RNA 1
RNA 2: B1 RNA 2 with U27G, U28G, U53G, A54C
B12: target 1 MT 5'PFS GAG 3'PFS ACA (mixed)
RNA 1: B1 RNA 1
RNA 2: B1 RNA 2 with U27G, U28A, A29G, U52A, U53C
B13: target 1 MT 5'PFS UCC 3'PFS UAU (mixed)
RNA 1: B1 RNA 1
RNA 2: B1 RNA 2 with U28C, A29C, U53A, A54U
B14: target 1 del5,del13 (mixed)
RNA 1: B1 RNA 1
RNA 2: GGGAAUGGAUCCACAUCUACGAAUUCGUACCAUAGAGAGUUAUCCCUCACCGAGAUCGGAAGAGCACACGU
B15: target 1 insC 3' of 12,insC 3' of 8 (mixed)
RNA 1: B1 RNA 1
RNA 2: B8 RNA 2 with U41C, A43U, U44A, C45U, G47C, U49G, A52C, C53A
B16: target 1 MT 5'PFS UCG 3'PFS ACA (mixed)
RNA 1: B1 RNA 1
RNA 2: B1 RNA 2 with U28C, A29G, U52A, U53C
B17: target 1 MT 5'PFS GGA 3'PFS UGA (mixed)
RNA 1: B1 RNA 1
RNA 2: B1 RNA 2 with U27G, U28G, U53G

Changes are numbered by the printed parent chain.

This data set deals with T1, EsCas13d, nuclease-dead. Briefly: crRNA (strand 1, pre-loaded); Mg2+; 40 mM Tris-HCl pH 7.5, 150 mM NaCl, 6 mM MgCl2, 1 mM DTT, 0.1% Tween-20, 0.2 mg/ml BSA; 25 C; 10 min per concentration, then washed. As to conditions: tags: His6-TwinStrep-SUMO cleaved; N-terminal SNAP kept (SNAP-Surface 488); label: 3' end held by stalled T7 RNA polymerase.
In turn, B1 yielded a Kd of 30.5 ± 5 nM.
Take B2: the Kd turned out to be 10.3 ± 0.6 nM.
Consider B3, for which the Kd came out at 11.8 ± 1.2 nM.
Regarding B4, the Kd was determined as 20 ± 8.5 nM.
B5 displayed a Kd of 17.5 ± 3.9 nM.
Molecule B6 registered a Kd of 61 ± 17 nM.
B7 gave a Kd of 49 ± 22.5 nM.
For the molecule B8, the Kd was found to be 11.1 ± 0.5 nM.
On to B9, for which the Kd was determined as 32 ± 8.5 nM.
As to B10, the affinity, expressed as Kd, was 24.9 ± 4.75 nM.
B11 returned a Kd of 8.3 ± 1.1 nM.
B12: the Kd was roughly 43 nM.
Take B13: the Kd was roughly 12.6 nM.
Molecule B14 showed a Kd of 11.5 ± 0.9 nM.
Turning to B15, binding was characterised by a dissociation constant (Kd) of 32.1 ± 2.8 nM.
B16: the Kd is 36 ± 8 nM.
Turning to B17, the Kd came to 16.2 ± 3.15 nM.

As usually defined, the Kd is the constant that tells how readily two partners part at equilibrium. A high value points to lower affinity.

These data come from publication PMC10786891, “Massively parallel profiling of RNA-targeting CRISPR-Cas13d”.
